Measurements taken from IntAct's records for PubMed 22949657.

Target: T1, tp8l2_human TNFAIP8L2 (UniProt Q6P589)
T1 sequence: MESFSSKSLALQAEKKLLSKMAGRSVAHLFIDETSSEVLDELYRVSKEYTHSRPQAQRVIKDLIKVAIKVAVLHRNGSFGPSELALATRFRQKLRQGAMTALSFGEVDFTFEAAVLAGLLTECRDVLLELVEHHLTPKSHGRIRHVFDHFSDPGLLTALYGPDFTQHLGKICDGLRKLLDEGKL

## Ras-related C3 botulinum toxin substrate 1 (Homo sapiens) (from UniProt P63000-1) C189S
  effect of a mutation on the interaction: disrupting interaction strength
